In patent publication US7402417B2, “P450 oxygenases and methods of use” (Washington State University Research Foundation, priority 2003, dated 2008):

Legend:
[1] = substrate: C=C1CCC[C@@]2(C)CCC3=C(C)CC[C@@H](C[C@H]12)C3(C)C; experiment: Kinetic evaluation of taxadiene isomers, average of recombinant and T. media microsomes (FIG. 4); format: biochemical, Taxus; details: other: average of recombinant (Sf9) and T. media microsomes; substrate 1 to 500 μM
Protocol: (§1) Taxa-4(20),11(12)-diene (◯) and taxa-4(5),11(12)-diene (●) were evaluated with microsomes from S. formgiperda cells enriched with 50 pmol recombinant taxoid 5α-hydroxylase (A), and with microsomes from T. media suspension cells containing about 50 pmol of total native cytochrome P450 (B). Substrate Concentration range was varied from 1 to 500 μM in all cases.

[2] = substrate: [H][C@]12CCC(C)=C(CC[C@]3(C)CCC=C(C)[C@@]3([H])C1)C2(C)C; experiment: as above; format: biochemical, Taxus; details: other: average of recombinant (Sf9) and T. media microsomes; substrate 1 to 500 μM
Protocol: as §1

[3] = substrate: C=C1CCC[C@@]2(C)CCC3=C(C)CC[C@@H](C[C@H]12)C3(C)C; experiment: Kinetic evaluation with Sf9 microsomes enriched in recombinant 5α-hydroxylase (radio-HPLC, Michaelis-Menten); format: biochemical, Taxus cuspidata; details: other: Sf9 microsomes, recombinant enzyme, 200 μM NADPH plus regenerating system; pH 7.5
Protocol: (§2) Kinetic constants for both isomers were next evaluated (at a saturating 200 μM concentration of NADPH plus regenerating system; Shimada and Yamazai, Meth. Mol. Biol., 107:85-93, 1998). The isolated microsomes were resuspended in 50 mM Hepes, pH 7.5, containing 1 mM DTT and 5% (v/v) glycerol, and the 1 ml reactions (˜600 μg protein, 50 μM substrate dissolved in DMSO, and the requisite cofactors (e.g., NADPH plus regenerating system) were run as described previously, with the identical protocols for product analysis (Jennewein et al., Proc. Natl. Acad. Sci. USA, 98:13595-13600, 2001). DMSO was without influence on the reaction. For kinetic evaluation, following the establishment of linear reaction conditions in protein concentration and time, the response to substrate concentration was plotted by the Michaelis-Menten method (Sigmaplot 7.0) using the calibrated radio-HPLC protocol for product determination Data from three independent experiments were pooled and the line of best fit taken (R^2>0.99).

[4] = substrate: [H][C@]12CCC(C)=C(CC[C@]3(C)CCC=C(C)[C@@]3([H])C1)C2(C)C; experiment: as above; format: biochemical, Taxus cuspidata; details: other: Sf9 microsomes, recombinant enzyme, 200 μM NADPH plus regenerating system; pH 7.5
Protocol: as §2

Row | Protein | Km [1] [µM] | Km [2] [µM] | Km [3] [µM] | Km [4] [µM]
1 | taxoid 5α-hydroxylase (Taxus cuspidata) (protein) MDALYKSTVAKFNEVTQLDCSTESFSIALSAIAGILLLLLLFRSKRHSSLKLPPGKLGIPFIGESFIFLRALRSNSLEQFFDERVKKFGLVFKTSLIGHPTVVLCGPAGNRLILSNEEKLVQMSWPAQFMKLMGENSVATRRGEDHIVMRSALAGFFGPGALQSYIGKMNTEIQSHINEKWKGKDEVNVLPLVRELVFNISAILFFNIYDKQEQDRLHKLLETILVGSFALPIDLPGFGFHRALQGRAKLNKIMLSLIKKRKEDLQSGSATATQDLLSVLLTFRDDKGTPLTNDEILDNFSSLLHASYDTTTSPMALIFKLLSSNPECYQKVVQEQLEILSNKEEGEEITWKDLKAMKYTWQVAQETLRMFPPVFGTFRKAITDIQYDGYTIPKGWKLLWTTYSTHPKDLYFNEPEKFMPSRFDQEGKHVAPYTFLPFGGGQRSCVGWEFSKMEILLFVHHFVKTFSSYTPVDPDEKISGDPLPPLPSKGFSIKLFPRP | 21.5 | 36 |  | 
2 | recombinant taxoid 5α-hydroxylase (clone S1) (Taxus cuspidata) (protein, the S1 ORF was amplified using Pfu DNA polymerase and gene-specific primers containing a BamHI site immediately upstream of the start codon; made in house; host or cells: Spodoptera frugiperda Sf9 cells (baculovirus, pFastBac1); microsomal membranes) MDALYKSTVAKFNEVTQLDCSTESFSIALSAIAGILLLLLLFRSKRHSSLKLPPGKLGIPFIGESFIFLRALRSNSLEQFFDERVKKFGLVFKTSLIGHPTVVLCGPAGNRLILSNEEKLVQMSWPAQFMKLMGENSVATRRGEDHIVMRSALAGFFGPGALQSYIGKMNTEIQSHINEKWKGKDEVNVLPLVRELVFNISAILFFNIYDKQEQDRLHKLLETILVGSFALPIDLPGFGFHRALQGRAKLNKIMLSLIKKRKEDLQSGSATATQDLLSVLLTFRDDKGTPLTNDEILDNFSSLLHASYDTTTSPMALIFKLLSSNPECYQKVVQEQLEILSNKEEGEEITWKDLKAMKYTWQVAQETLRMFPPVFGTFRKAITDIQYDGYTIPKGWKLLWTTYSTHPKDLYFNEPEKFMPSRFDQEGKHVAPYTFLPFGGGQRSCVGWEFSKMEILLFVHHFVKTFSSYTPVDPDEKISGDPLPPLPSKGFSIKLFPETIVN |  |  | 16 ± 3.2 | 24 ± 2.5
